Assay results from patent US20240050432A1 (Infinity Pharmaceuticals, Inc., priority 2020, published 2024).
Read-outs that look alike come from different tables or passages of the source.

What was measured:
[1] = system: interferon alpha pathway; assay: Peripheral blood gene set enrichment, day 15 vs. day 0; format: in vivo, human
Description: (§1) In all patients (day 15 vs. day 0): interferon gamma pathway: ES=0.81, p<0.01 (combination, n=31) vs. ES=0.51, p=0.28 (nivolumab, n=14); interferon alpha pathway: ES=0.87, p<0.01 (combination, n=31) vs. ES=0.53, p=0.39 (nivolumab, n=14). In PD-L1 negative patients (day 15 vs. day 0): interferon gamma pathway: ES=0.82, p<0.01 (combination, n=21) vs. ES=0.55, p=0.15 (nivolumab, n=5); interferon alpha pathway: ES=0.88, p<0.01 (combination, n=21) vs. ES=0.53, p=0.35 (nivolumab, n=5).

[2] = system: interferon gamma pathway; assay: as above; format: in vivo, human
Description: as §1

[3] = system: advanced urothelial carcinoma; assay: Phase 2 randomized study of eganelisib + nivolumab vs nivolumab: response, PFS, OS; format: in vivo, human; details: for Median PFS: preliminary PFS
Description: (§2) Methods: Eligible patients (pts) with mUC who progressed on >1 platinum-based chemotherapy regimen and were CPI naïve were enrolled. […] Pts were stratified by baseline circulating monocytic myeloid derived suppressor cells (mMDSC) level. The primary endpoint was objective response rate (ORR) per RECIST v1.1 in pts with high baseline mMDSC levels. Other endpoints included ORR, progression free survival (PFS) and overall survival (OS) in all pts, PD-L1+/−pts and pts with hepatic adverse events (AE).
Advanced platinum refractory 2nd line urothelial cancer patients: Inclusion/exclusion criteria per CheckMate-275; MDSC* all corners (stratified); PD-L1** status all corners (non-stratified). • * Circulating mMDSC levels measured in baseline peripheral blood samples based on a Clinical Laboratory Improvement Amendments (CLIA)-certified flow cytometry assay (low [<22.3%] or high [≥22.3%] or ≥/<the median MDSC level of patients in this trial) • ** PD-L1 expression measured in baseline/archival tumor biopsies with Dako PD-L1 immunohistochemical 28-8 pharmDx kit approved for nivolumab in UC, except 2 biopsies tested with 22C3 PD-L1 antibody prior to study (Tumor Proportion Score≥1% cutoff for PD-L1 (+)) • Primary objective: ORR in MDSC High • Secondary objectives: ORR, TTR, DOR, and PFS in total population+MDSC subsets; safety; PK • Exploratory objectives: safety and efficacy in biomarker subsets, including PD-L1; OS
(§3) The dose for nivolumab is 480 mg Q4W.

[4] = system: metastatic urothelial carcinoma (mUC); details: CheckMate-275, cited from earlier work
[5] = Phase 2 urothelial carcinoma study: adverse events; format: in vivo, human
Description: as §2, §3

[6] = PD-L1 negative patients, n=21 vs n=5
[7] = snapshot Jun. 26, 2021, PD-L1 negative patients
[8] = snapshot Jun. 26, 2021, all patients
[9] = preliminary analysis, N=33 vs N=16
[10] = preliminary analysis, N=33 vs N=16, 1 Grade 4
[11] = snapshot Jun. 26, 2021, N=33 vs N=16

nivolumab
gene set Enrichment Score (ES), interferon alpha pathway [1, 6]: 0.53
gene set Enrichment Score (ES), interferon alpha pathway ([1]; all patients, n=31 vs n=14): 0.53
gene set Enrichment Score (ES), interferon gamma pathway [2, 6]: 0.55
gene set Enrichment Score (ES), interferon gamma pathway ([2]; all patients, n=31 vs n=14): 0.51
overall survival probability at one year landmark [3, 7]: 17%
overall survival probability at one year landmark [3, 8]: 32%
Median OS (95% CI) ([4]; All (n = 270)): 8.6 (6.1-11.3) mo.
Median PFS (95% CI) ([4]; All (n = 270)): 1.9 (1.9, 2.3) mo.
ORR (95% CI) ([4]; All (n = 270)): 20 (16-26) %
Median OS (95% CI) ([4]; PD-L1 < 1% (n = 146)): 6.0 (4.4-8.1) mo.
Median PFS (95% CI) ([4]; PD-L1 < 1% (n = 146)): 1.9 (1.7, 2.0) mo.
ORR (95% CI) ([4]; PD-L1 < 1% (n = 146)): 16 (10-23) %
Median OS (95% CI) ([4]; PD-L1 ≥ 1% (n = 124)): 11.9 (9.1-19.1) mo.
Median PFS (95% CI) ([4]; PD-L1 ≥ 1% (n = 124)): 3.5 (1.9, 3.7) mo.
ORR (95% CI) ([4]; PD-L1 ≥ 1% (n = 124)): 26 (18-34) %

Nivolumab + Placebo: placebo with nivolumab (PN), active control arm
patients with reduction of tumor burden ([3]; PD-L1(−) patients, best change of target lesion): 17%
Median PFS ([3]; ITT): 8.5 wks
Median PFS ([3]; PD-L1(+)): 16.4 wks
Median PFS ([3]; PD-L1(−)): 7.9 wks
patients for whom durability of OS benefit continued to mature ([3]; snapshot Jun. 26, 2021): 18%
median OS (mOS) [3, 7]: 7.9 months
median OS (mOS) [3, 8]: 7.9 months
asthenia, all-Gr AE ([5]; first 49 pts (33 EN, 16 PN)): 31%
hepatotoxicity, Gr≥3 AE ([5]; first 49 pts (33 EN, 16 PN)): 0%
pruritis, all-Gr AE ([5]; first 49 pts (33 EN, 16 PN)): 6%
pyrexia, all-Gr AE ([5]; first 49 pts (33 EN, 16 PN)): 0%
rash, Gr≥3 AE ([5]; first 49 pts (33 EN, 16 PN)): 0%
rash, all-Gr AE ([5]; first 49 pts (33 EN, 16 PN)): 6%
transaminase elevation, Gr≥3 AE ([5]; first 49 pts (33 EN, 16 PN)): 6%
transaminase elevation, all-Gr AE ([5]; first 49 pts (33 EN, 16 PN)): 6%
Aspartate aminotransferase increased, Grade≥3 TEAE, Related to Eganelisib (Placebo in control arm) [5, 9]: 0 n (%)
Aspartate aminotransferase increased, Grade≥3 TEAE, Related to Nivolumab [5, 9]: 0 n (%)
Asthenia, TEAE, All Causality [5, 9]: 4 (25.0) n (%)
Asthenia, TEAE, Related to Eganelisib (Placebo in control arm) [5, 9]: 2 (12.5) n (%)
Asthenia, TEAE, Related to Nivolumab [5, 9]: 1 (6.3) n (%)
Decreased appetite, TEAE, All Causality [5, 9]: 4 (25.0) n (%)
Decreased appetite, TEAE, Related to Eganelisib (Placebo in control arm) [5, 9]: 1 (6.3) n (%)
Decreased appetite, TEAE, Related to Nivolumab [5, 9]: 0 n (%)
Disease progression, Grade≥3 TEAE, All Causality [5, 9]: 6 (37.5) n (%)
Disease progression, Grade≥3 TEAE, Related to Eganelisib (Placebo in control arm) [5, 9]: 0 n (%)
Disease progression, Grade≥3 TEAE, Related to Nivolumab [5, 9]: 0 n (%)
Disease progression, TEAE, All Causality [5, 9]: 6 (37.5) n (%)
Disease progression, TEAE, Related to Eganelisib (Placebo in control arm) [5, 9]: 0 n (%)
Disease progression, TEAE, Related to Nivolumab [5, 9]: 0 n (%)
Hepatotoxicity, Grade≥3 TEAE, Related to Eganelisib (Placebo in control arm) [5, 9]: 0 n (%)
Hepatotoxicity, Grade≥3 TEAE, Related to Nivolumab [5, 9]: 0 n (%)
Pruritus, TEAE, All Causality [5, 9]: 1 (6.3) n (%)
Pruritus, TEAE, Related to Eganelisib (Placebo in control arm) [5, 9]: 0 n (%)
Pruritus, TEAE, Related to Nivolumab [5, 9]: 0 n (%)
Pyrexia, TEAE, All Causality [5, 9]: 0 n (%)
Pyrexia, TEAE, Related to Eganelisib (Placebo in control arm) [5, 9]: 0 n (%)
Pyrexia, TEAE, Related to Nivolumab [5, 9]: 0 n (%)
Rash, TEAE, All Causality [5, 9]: 1 (6.3) n (%)
Rash, TEAE, Related to Eganelisib (Placebo in control arm) [5, 9]: 0 n (%)
Rash, TEAE, Related to Nivolumab [5, 9]: 0 n (%)
Aspartate aminotransferase increased, Grade≥3 TEAE, All Causality [5, 10]: 1 (6.3) n (%)
Hepatotoxicity, Grade≥3 TEAE, All Causality [5, 10]: 0 n (%)
Anemia, Grade≥3 TEAE, All Causality [5, 11]: 1 (6.3) n (%)
Anemia, Grade≥3 TEAE, Related to Eganelisib (Placebo in control arm) [5, 11]: 0 n (%)
Anemia, Grade≥3 TEAE, Related to Nivolumab [5, 11]: 0 n (%)
Aspartate aminotransferase increased, Grade≥3 TEAE, All Causality [5, 11]: 1 (6.3) n (%)
Aspartate aminotransferase increased, Grade≥3 TEAE, Related to Eganelisib (Placebo in control arm) [5, 11]: 1 (6.3) n (%)
Aspartate aminotransferase increased, Grade≥3 TEAE, Related to Nivolumab [5, 11]: 1 (6.3) n (%)
Asthenia, TEAE, All Causality [5, 11]: 5 (31.3) n (%)
Asthenia, TEAE, Related to Eganelisib (Placebo in control arm) [5, 11]: 2 (12.5) n (%)
Asthenia, TEAE, Related to Nivolumab [5, 11]: 1 (6.3) n (%)
Decreased appetite, TEAE, All Causality [5, 11]: 5 (31.3) n (%)
Decreased appetite, TEAE, Related to Eganelisib (Placebo in control arm) [5, 11]: 1 (6.3) n (%)
Decreased appetite, TEAE, Related to Nivolumab [5, 11]: 0 n (%)
Disease progression, Grade≥3 TEAE, All Causality [5, 11]: 4 (25.0) n (%)
Disease progression, Grade≥3 TEAE, Related to Eganelisib (Placebo in control arm) [5, 11]: 0 n (%)
Disease progression, Grade≥3 TEAE, Related to Nivolumab [5, 11]: 0 n (%)
Disease progression, TEAE, All Causality [5, 11]: 4 (25.0) n (%)
Disease progression, TEAE, Related to Eganelisib (Placebo in control arm) [5, 11]: 0 n (%)
Disease progression, TEAE, Related to Nivolumab [5, 11]: 0 n (%)
Hepatotoxicity, Grade≥3 TEAE, All Causality [5, 11]: 0 n (%)
Hepatotoxicity, Grade≥3 TEAE, Related to Eganelisib (Placebo in control arm) [5, 11]: 0 n (%)
Hepatotoxicity, Grade≥3 TEAE, Related to Nivolumab [5, 11]: 0 n (%)
Pruritus, TEAE, All Causality [5, 11]: 1 (6.3) n (%)
Pruritus, TEAE, Related to Eganelisib (Placebo in control arm) [5, 11]: 0 n (%)
Pruritus, TEAE, Related to Nivolumab [5, 11]: 0 n (%)
Pyrexia, TEAE, All Causality [5, 11]: 0 n (%)
Pyrexia, TEAE, Related to Eganelisib (Placebo in control arm) [5, 11]: 0 n (%)
Pyrexia, TEAE, Related to Nivolumab [5, 11]: 0 n (%)
Rash, TEAE, All Causality [5, 11]: 1 (6.3) n (%)
Rash, TEAE, Related to Eganelisib (Placebo in control arm) [5, 11]: 0 n (%)
Rash, TEAE, Related to Nivolumab [5, 11]: 0 n (%)
Discontinued treatment: Adverse event, unrelated to treatment ([5]; snapshot Jun. 26, 2021, of discontinued patients): 0 n
